Substitutions are numbered along the chain they refer to. Names and notes keep the numbering of the source. “Also recorded” adds a separate entry of the source.
B1: E401D: MmRXRα ligand binding domain substitution mutant, glutamic acid to aspartic acid at 401 of SEQ ID NO: 1, fused to VP16 (protein)
chain: MGPKKKRKVAPPTDVSLGDELHLDGEDVAMAHADALDDFDLDMLGDGDSPGPGFTPHDSAPYGALDMADFEFEQMFTDALGIDEYGGEFPANEDMPVEKILEAELAVEPKTETYVEANMGLNPSSPNDPVTNICQAADKQLFTLVEWAKRIPHFSELPLDDQVILLRAGWNELLIASFSHRSIAVKDGILLATGLHVHRNSAHSAGVGAIFDRVLTELVSKMRDMQMDKTELGCLRAIVLFNPDSKGLSNPAEVEALREKVYASLDAYCKHKYPEQPGRFAKLLLRLPALRSIGLKCLEHLFFFKLIGDTPIDTFLMEMLEAPHQAT
B2: E401D/G429S: double substitution mutant MmRXRα-EF with E401D and G429S; three independent clones analyzed (protein)
chain: B1 chain with G294S
B3: G429S: MmRXRα ligand binding domain substitution mutant, glycine to serine at 429 of SEQ ID NO: 1, fused to VP16 (protein)
chain: B1 chain with D266E, G294S
B4: M431L: HsRXRβ ligand binding domain substitution mutant (SEQ ID NO: 2) (protein, listed as Homo sapiens)
chain: MSWAARPPFLPQRHAAGQCGPVGVRKEMHCGVASRWRRRRPWLDPAAAAAAAVAGGEQQTPEPEPGEAGRDGMGDSGRDSRSPDSSSPNPLPQGVPPPSPPGPPLPPSTAPSLGGSGAPPPPPMPPPPLGSPFPVISSSMGSPGLPPPAPPGFSGPVSSPQINSTVSLPGGGSGPPEDVKPPVLGVRGLHCPPPPGGPGAGKRLCAICGDRSSGKHYGVYSCEGCKGFFKRTIRKDLTYSCRDNKDCTVDKRQRNRCQYCRYQKCLATGMKREAVQEERQRGKDKDGDGEGAGGAPEEMPVDRILEAELAVEQKSDQGVEGPGGTGGSGSSPNDPVTNICQAADKQLFTLVEWAKRIPHFSSLPLDDQVILLRAGWNELLIASFSHRSIDVRDGILLATGLHVHRNSAHSAGVGAIFDRVLTELVSKMRDLRMDKTELGCLRAIILFNPDAKGLSNPSEVEVLREKVYASLETYCKQKYPEQQGRFAKLLLRLPALRSIGLKCLEHLFFFKLIGDTPIDTFLMEMLEAPHQLA
B5: V462L: HsRXRβ ligand binding domain substitution mutant (protein, listed as Homo sapiens)
chain: B4 chain with L431M, V462L
modifications: ligand binding domain only
B6: G321L/P322R/G323V: HsRXRβ ligand binding domain triple substitution mutant (SEQ ID NO: 2) (protein, listed as Homo sapiens)
chain: B4 chain with G321L, P322R, G323V, L431M
B7: T473E: HsRXRβ ligand binding domain substitution mutant (protein, listed as Homo sapiens)
chain: B4 chain with L431M, T473E
modifications: ligand binding domain only
B8: E472D: HsRXRβ ligand binding domain substitution mutant (protein, listed as Homo sapiens)
chain: B4 chain with L431M, E472D
modifications: ligand binding domain only
B9: G500S: HsRXRβ ligand binding domain substitution mutant, glycine to serine at 500 (protein, listed as Homo sapiens)
chain: B4 chain with L431M, G500S
modifications: ligand binding domain only
B10: D450E/A451V/K452R: HsRXRβ ligand binding domain triple substitution mutant (protein)
chain: MGPKKKRKVAPPTDVSLGDELHLDGEDVAMAHADALDDFDLDMLGDGDSPGPGFTPHDSAPYGALDMADFEFEQMFTDALGIDEYGGEFPAPEEMPVDRILEAELAVEQKSDQGVEGPGGTGGSGSSPNDPVTNICQAADKQLFTLVEWAKRIPHFSSLPLDDQVILLRAGWNELLIASFSHRSIDVRDGILLATGLHVHRNSAHSAGVGAIFDRVLTELVSKMRDMRMDKTELGCLRAIILFNPEVRGLSNPSEVEVLREKVYASLETYCKQKYPEQQGRFAKLLLRLPALRSIGLKCLEHLFFFKLIGDTPIDTFLMEMLEAPHQLA
B11: E481D/Q482E/Q483P: HsRXRβ ligand binding domain triple substitution mutant (protein)
chain: B10 chain with E246D, V247A, R248K, E277D, Q278E, Q279P
B12: C475T/K476R/Q477T/K478T/Y479H: HsRXRβ ligand binding domain quintuple substitution mutant (protein)
chain: B10 chain with E246D, V247A, R248K, C271T, K272R, Q273T, K274T, Y275H
B13: S455K/N456S/P457A/S458Q: HsRXRβ ligand binding domain quadruple substitution mutant (protein)
chain: B10 chain with E246D, V247A, R248K, S251K, N252S, P253A, S254Q

The molecules below were run on GAL4/CfEcR-DEF and pFRLuc in NIH3T3 cells (assay: Reporter gene transactivation of VP16/mutant MmRXRα-EF with GAL4/CfEcR-DEF and pFRLuc, GS™-E ligand). Conditions: NIH3T3 cells, 0.2, 1 and 10 μM GS™-E.
Assay type: cell-based, mouse
Experimental: (§1) The resulting PCR nucleic acid products encoding the mutant RXR ligand binding domains were then each fused to a VP16 transactivation domain as described in Examples 1.3 and 1.6 above. The VP16/mutant RXR receptor constructs were tested for activity by transfecting them into NIH3T3 cells along with GAL4/CfEcR-DEF and pFRLuc in the presence of non-steroid ligand.
(§2) DNAs corresponding to the various switch constructs outlined in Example 1.1-1.6 were transfected into mouse NIH3T3 cells (ATCC) as follows. Standard methods for culture and maintenance of the cells were followed. […] Superfect™ (Qiagen Inc.) was used as the transfection reagent. For 12-well plates, 4 μl of Superfect™ was mixed with 100 μl of growth medium. One μg of reporter construct and 0.25 μg of each receptor construct of the receptor pair to be analyzed were added to the transfection mix. […] The cells were harvested and reporter activity was assayed.
Cells were harvested 40 hours after adding ligand. […] Twenty μl of lysate were assayed.
DNAs corresponding to the various switch constructs outlined in Example 1, specifically switches 1.1-1.4, were transfected into mouse NIH3T3 cells (ATCC) as follows. […] Two μl of Superfect™ was mixed with 100 μl of growth medium and 50 ng of GAL4/CfEcR-DEF cassette, 50 ng of: VP16/LmUSP-EF, VP16/wild-typeMmRXRα-EF, VP16/MmRXRα-LmUSPchimera-EF, or VP16/mutantMmRXRα-EF, and 200 ng of pFRLuc were added to the transfection mix. […] The cells were harvested and reporter activity was assayed as described above.

| Molecule | induction levels | sensitivity to non-steroid ligand |
| --- | --- | --- |
| B1 | higher induction levels | increased sensitivity to a non-steroid ligand |
| B2 | increased induction levels | increased induction levels and ligand sensitivity |
| B3 |  | increased sensitivity to a non-steroid ligand; also recorded: increased sensitivity to ligand |

Same assay, conditions: NIH3T3 cells, 0.2, 1 and 10 μM GS™-E (FIG. 2)

| Molecule | performance compared with chimeric vertebrate RXR/invertebrate RXR |
| --- | --- |
| B2 | work as well as the chimeric RXR |

Same assay, conditions: NIH3T3 cells, VP16/MmRXRα-EF mutant + GAL4/CfEcR-DEF + pFRLuc, no ligand (DMSO)

| Molecule | background levels in the absence of ligand |
| --- | --- |
| B1 | higher background |
| B2 | low background levels |
| B3 | less background |

The molecules below were run on GAL4/CfEcR-DEF and pFRLuc in NIH3T3 cells (assay: not given). Conditions: 0.04-25 μM GS™-E (FIG. 4).
Assay type: cell-based, mouse
Experimental: as §1, §2
Cells were harvested 40 hours after adding ligand. […] Twenty μl of lysate were assayed. […]
The cells were harvested and reporter activity was assayed as described above.
As discussed above, a CfEcR-based gene regulation system is ligand dependent when RXRs are used as the heterodimeric partner and ligand independent when USPs are used as the heterodimeric partner. However, reporter gene expression is induced at very high levels when CfUSP is used as the heterodimeric partner. To improve RXR as heterodimeric partner, Applicants have aligned the polypeptide sequences of several USP and RXR ligand binding domains (domains EF) and identified amino acid residues that are different between these two nuclear receptor family members. In particular, Applicants identified residues that are conserved in all USPs but are different in RXRs and mutated these residues in HsRXRβ. […] The cells were harvested and reporter activity was assayed as described above.

| Molecule | transactivation activity |
| --- | --- |
| B4 | essentially eliminated transactivation activity |

Same assay, conditions: 0.04-25 μM GS™-E, compared to wild-type HsRXRβ-EF

| Molecule | non-steroid ligand sensitivity |
| --- | --- |
| B5 | improved non-steroid ligand sensitivity |
| B6 | improved ligand sensitivity |
| B7 | improved non-steroid ligand sensitivity |
| B8 | improved ligand sensitivity |
| B9 | improved ligand sensitivity |
| B10 | improved non-steroid ligand sensitivity |
| B11 | improved non-steroid ligand sensitivity |
| B12 | improved non-steroid ligand sensitivity |
| B13 | improved non-steroid ligand sensitivity |

— patent US10087231B2, “Substitution mutant receptors and their use in an ecdysone receptor-based inducible gene expression system” (Intrexon Corporation, priority 2001, dated 2018)
